Measurements as given in patent publication US20250352661A1 (MYTHIC THERAPEUTICS, published 2025).
Where a chain is given by its changes, count along the chain named. Numbers in names are those of the source.

T1: Human LRRC15 Protein, His Tag, Acro Biosystems (human, UniProt Q8TF66 22-538, limits assumed)
T1 construct: not shown: His tag
T1 sequence (looked up): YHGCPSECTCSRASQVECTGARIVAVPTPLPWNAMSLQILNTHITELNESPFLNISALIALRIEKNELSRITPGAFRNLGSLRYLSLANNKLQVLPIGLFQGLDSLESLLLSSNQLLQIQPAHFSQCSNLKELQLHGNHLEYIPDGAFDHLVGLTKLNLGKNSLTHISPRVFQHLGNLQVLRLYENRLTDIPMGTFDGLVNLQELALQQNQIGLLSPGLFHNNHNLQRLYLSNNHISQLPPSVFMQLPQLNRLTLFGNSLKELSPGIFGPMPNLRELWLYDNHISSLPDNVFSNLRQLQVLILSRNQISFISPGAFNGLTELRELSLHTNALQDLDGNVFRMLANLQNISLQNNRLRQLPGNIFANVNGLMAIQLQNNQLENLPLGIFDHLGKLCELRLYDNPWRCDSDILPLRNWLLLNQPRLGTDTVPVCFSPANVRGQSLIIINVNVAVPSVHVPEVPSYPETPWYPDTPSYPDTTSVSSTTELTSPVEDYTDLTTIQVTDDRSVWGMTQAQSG

T2: Human LRRC15 Protein, His Tag (Acro Biosystems) (human, UniProt Q8TF66 22-538, limits assumed)
T2 construct: Bought protein with His tag
T2 sequence (looked up): T1 sequence (looked up)

B1: MYT9508 (antibody, V domains shown)
VH: EVQLVESGGGLVQPGGSLRLSCTASGFSFSSSHWICWVRQAPGKGLEWVGCIYAGSIGSTYYASWAKGRFTISRDTSKNTVYLQMNSLRAEDTAVYYCARAPNDIYNYYFNLWGQGTLVTVSS
VL: EIVMTQSPSTLSASVGDRVIITCQDSENIYNYLAWYQQKPGKAPKLLIYYASTLASGVPSRFSGSGSGAEFTLTISSLQPDDFATYYCQSGYVSKSSTFGQGTKLTVL
notes: also called hu29F1 VL A25D
B2: MYT9509 (antibody, V domains shown)
VH: B1 VH
VL: B1 VL with D25A, S26D
notes: Humanized 29F1 with VL S26D; captured by anti-human Fc sensor
B3: MYT9510 (antibody, V domains shown)
VH: B1 VH
VL: B1 VL with D25A, E27D
notes: Humanized 29F1 with VL E27D; captured by anti-human Fc sensor
B4: MYT9511 (antibody, V domains shown)
VH: B1 VH
VL: B1 VL with D25A, N28D
notes: Humanized 29F1 with VL N28D; captured by anti-human Fc sensor
B5: MYT9514 (antibody, V domains shown)
VH: B1 VH
VL: B1 VL with D25A, N31D
notes: Humanized 29F1 with VL N31D; captured by anti-human Fc sensor
B6: MYT9516 (antibody, V domains shown)
VH: B1 VH
VL: B1 VL with D25A, L33D
notes: also called hu29F1 VL L33D
B7: MYT9519 (antibody, V domains shown)
VH: B1 VH
VL: B1 VL with D25A, A51D
notes: also called hu29F1 VL A51D
B8: MYT9520 (antibody, V domains shown)
VH: B1 VH
VL: B1 VL with D25A, S52D
notes: Humanized 29F1 with VL S52D; captured by anti-human Fc sensor
B9: MYT9522 (antibody, V domains shown)
VH: B1 VH
VL: B1 VL with D25A, L54D
notes: Humanized 29F1 with VL L54D; captured by anti-human Fc sensor
B10: MYT9524 (antibody, V domains shown)
VH: B1 VH
VL: B1 VL with D25A, S56D
notes: Humanized 29F1 with VL S56D; captured by anti-human Fc sensor
B11: MYT9525 (antibody, V domains shown)
VH: B1 VH
VL: B1 VL with D25A, Q89D
notes: also called hu29F1 VL Q89D
B12: MYT9526 (antibody, V domains shown)
VH: B1 VH
VL: B1 VL with D25A, S90D
notes: also called hu29F1 VL S90D
B13: MYT9530 (antibody, V domains shown)
VH: B1 VH
VL: B1 VL with D25A, S94D
notes: Humanized 29F1 with VL S94D; captured by anti-human Fc sensor
B14: MYT9532 (antibody, V domains shown)
VH: B1 VH
VL: B1 VL with D25A, S96D
notes: also called hu29F1 VL S96D
B15: MYT9533 (antibody, V domains shown)
VH: B1 VH
VL: B1 VL with D25A, S97D
notes: also called hu29F1 VL S97D
B16: MYT9730 (antibody, V domains shown)
VH: B1 VH
VL: B1 VL with D25A, E27A
notes: Humanized 29F1 with VL E27A; captured by anti-human Fc sensor
B17: MYT9732 (antibody, V domains shown)
VH: B1 VH
VL: B1 VL with D25A, I29E
notes: also called hu29F1 VL I29E
B18: MYT9734 (antibody, V domains shown)
VH: B1 VH
VL: B1 VL with D25A, N31E
notes: also called hu29F1 VL N31E
B19: MYT9736 (antibody, V domains shown)
VH: B1 VH
VL: B1 VL with D25A, L33E
notes: also called hu29F1 VL L33E
B20: MYT9738 (antibody, V domains shown)
VH: B1 VH
VL: B1 VL with D25A, Y50E
notes: Humanized 29F1 with VL Y50E; captured by anti-human Fc sensor
B21: MYT9739 (antibody, V domains shown)
VH: B1 VH
VL: B1 VL with D25A, A51E
notes: Humanized 29F1 with VL A51E; captured by anti-human Fc sensor
B22: MYT9740 (antibody, V domains shown)
VH: B1 VH
VL: B1 VL with D25A, S52E
notes: Humanized 29F1 with VL S52E; captured by anti-human Fc sensor
B23: MYT9741 (antibody, V domains shown)
VH: B1 VH
VL: B1 VL with D25A, T53E
notes: Humanized 29F1 with VL T53E; captured by anti-human Fc sensor
B24: MYT9744 (antibody, V domains shown)
VH: B1 VH
VL: B1 VL with D25A, S56E
notes: Humanized 29F1 with VL S56E; captured by anti-human Fc sensor
B25: MYT9745 (antibody, V domains shown)
VH: B1 VH
VL: B1 VL with D25A, Q89E
notes: also called hu29F1 VL Q89E
B26: MYT9752 (antibody, V domains shown)
VH: B1 VH
VL: B1 VL with D25A, S96E
notes: also called hu29F1 VL S96E
B27: MYT9753 (antibody, V domains shown)
VH: B1 VH
VL: B1 VL with D25A, S97E
notes: also called hu29F1 VL S97E
B28: MYT9754 (antibody, V domains shown)
VH: B1 VH
VL: B1 VL with D25A, T98E
notes: also called hu29F1 VL T98E
B29: MYT7912 (antibody, V domains shown)
VH: QQQLVESGGGLVKPGASLTLTCKASGFSFSGSYWICWVRQAPGKGLEWIGCINGGSLDITYYASWAKGRFTISKASSTTVTLQKTSLTAADTATYFCASHTSYTAYGNFYFNLWGPGTLVTVSS
VL: AQVLTQTASPVSAAVGGTVTINCQSSQSVLNNNWLAWYQQKPGQPPKLLIYDASSLASGVPSRFKGSGSGTQFTLTISDLESDDAATYYCQGEFSCGSADCNAFGGGTEVVVKG
notes: rabbit 24D9 VH D100H; chimeric, human constant regions
B30: MYT7913 (antibody, V domains shown)
VH: B29 VH with H100D, T101H
VL: B29 VL
notes: rabbit 24D9 VH T101H; chimeric, human constant regions
B31: MYT7914 (antibody, V domains shown)
VH: B29 VH with H100D, S102H
VL: B29 VL
notes: rabbit 24D9 VH S102H; chimeric, human constant regions
B32: MYT7915 (antibody, V domains shown)
VH: B29 VH with H100D, Y103H
VL: B29 VL
notes: rabbit 24D9 VH Y103H; chimeric, human constant regions
B33: MYT7916 (antibody, V domains shown)
VH: B29 VH with H100D, T104H
VL: B29 VL
notes: rabbit 24D9 VH T104H; chimeric, human constant regions

Key:
[1] = biological target: T1, Human LRRC15 Protein, His Tag, Acro …; test: BLI; dissociation pH 7.4 black, pH 5.4 grey [D00022 FIG. 5B]
Procedure: The resulting diluted supernatants were then captured on an anti-human Fc sensor (Forte Bio). A baseline was established using 1×PBST (50 mM Potassium Phosphate Buffer+150 mM NaCl+0.05% Tween 20) pH 7.4, and the […] was associated with 50 nM of LRRC15 (Human LRRC15 Protein, His Tag, Acro Biosystems) in 1×PBST pH 7.4 for 120 sec to generate an association curve. In the dissociation phase, the antibody-antigen complex on the sensor was exposed to 1×PBST pH 7.4 or pH 5.4, for 300 sec. Association and dissociation phase curves were examined for the starting ABPC antibody (with no substitutions) and each corresponding antibody variant at pH 5.4 and pH 7.4 to inform on two criteria: a) enhanced dissociation (i.e., higher koff values) at pH 5.4 due to histidine substitution compared to the starting ABPC, (with no substitutions), and b) reduced dissociation at pH 7.4 (i.e., lower koff values) compared to pH 5.4 in the antibody variant itself and with the starting ABPC (with no substitutions).
Briefly, CDRs in the 15G7 light chain were identified using the methods described in Example 9, and for each CDR, residues falling under either or both Kabat and IMGT CDR definitions were called as CDR residues. To generate pH-dependent sequence variants, individual amino acid residues within the light chain CDRs were systematically substituted with a histidine, one at a time (rabbit, MYT6122-6151). Desirable mutations were transferred to a humanized framework MYT8413-8487). After allowing for four days of protein expression, cell culture supernatants were collected, quantified by SDS-PAGE analysis, and the pH dependence of the variant was evaluated using biolayer interferometry (BLI) on an Octet RED 96e instrument (as described in Example 9). […]

[2] = biological target: T1, Human LRRC15 Protein, His Tag, Acro …; test: BLI; dissociation pH 7.4 black, pH 5.4 grey [D00028 FIG. 7B]
[3] = biological target: T2, Human LRRC15 Protein, His Tag (Acro …); test: BLI; dissociation pH 7.4 black, pH 5.4 grey [2/2); D00014 FIG. 2B (2/2]

Binder	binding result [1]	binding result [2]	other results
B1	binds	–	–
B2	binds	–	–
B3	binds	–	–
B4	binds	–	–
B5	binds	–	–
B6	binds	–	–
B7	binds	–	–
B8	binds	–	–
B9	binds	–	–
B10	binds	–	–
B11	binds	–	–
B12	binds	–	–
B13	binds	–	–
B14	binds	–	–
B15	binds	–	–
B16	–	binds	–
B17	–	binds	–

Binder	binding result [1]	binding result [2]	other results
B18	–	binds	–
B19	–	binds	–
B20	–	binds	–
B21	–	binds	–
B22	–	binds	–
B23	–	binds	–
B24	–	binds	–
B25	–	binds	–
B26	–	binds	–
B27	–	binds	–
B28	–	binds	–
B29	–	–	binding result [3]: no binding (tested: 50 nM LRRC15)
B30	–	–	binding result [3]: binds
B31	–	–	binding result [3]: binds
B32	–	–	binding result [3]: no binding (tested: 50 nM LRRC15)
B33	–	–	binding result [3]: binds
